Source: the supplement of paper PMC9112550, “Optimization of the antimicrobial peptide Bac7 by deep mutational scanning” (BMC Biology, 2022)

System: Escherichia coli TOP10
Test: shrunken log2 fold change of peptide-encoding DNA abundance (4.5 h post-induction vs induction); higher = less antimicrobial activity (less host growth inhibition)
Details: time post-induction: 4.5 h; library: site-saturation at positions 5, 18, 19, 20
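Further: peptides expressed intracellularly from a pBAD plasmid library in pooled LB shake-flask culture, induced with 0.3% L-arabinose, DNA abundance read by NGS, three biological replicates, DESeq2 with apeglm shrinkage.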

| Sequence | shrunken log2 fold change |
| --- | --- |
| RRIRDRPPRLPRPRPRPLWMPRP | 0.0442 |
| RRIRDRPPRLPRPRPRPLWTPRP | 0.163 |
| RRIRDRPPRLPRPRPRPLWYPRP | -0.421 |
| RRIRDRPPRLPRPRPRPMDSPRP | -0.0175 |
| RRIRDRPPRLPRPRPRPMEFPRP | -0.0018 |
| RRIRDRPPRLPRPRPRPMFYPRP | -0.305 |
| RRIRDRPPRLPRPRPRPMICPRP | -0.0307 |
| RRIRDRPPRLPRPRPRPMIRPRP | -0.0188 |
| RRIRDRPPRLPRPRPRPMITPRP | -0.115 |
| RRIRDRPPRLPRPRPRPMKHPRP | -0.245 |
| RRIRDRPPRLPRPRPRPMKLPRP | -0.0161 |
| RRIRDRPPRLPRPRPRPMLGPRP | 0.015 |
| RRIRDRPPRLPRPRPRPMLQPRP | 0.0454 |
| RRIRDRPPRLPRPRPRPMLRPRP | 0.0179 |
| RRIRDRPPRLPRPRPRPMLVPRP | 0.116 |
| RRIRDRPPRLPRPRPRPMPHPRP | -0.0342 |
| RRIRDRPPRLPRPRPRPMPQPRP | 0.0354 |
| RRIRDRPPRLPRPRPRPMRCPRP | 0.147 |
| RRIRDRPPRLPRPRPRPMRMPRP | 0.199 |
| RRIRDRPPRLPRPRPRPMRWPRP | 0.274 |
| RRIRDRPPRLPRPRPRPMSTPRP | 0.0569 |
| RRIRDRPPRLPRPRPRPMVDPRP | -0.0109 |
| RRIRDRPPRLPRPRPRPMVIPRP | 0.0392 |
| RRIRDRPPRLPRPRPRPMVSPRP | -0.00166 |
| RRIRDRPPRLPRPRPRPMVTPRP | 0.769 |

| Sequence | shrunken log2 fold change |
| --- | --- |
| RRIRDRPPRLPRPRPRPMVWPRP | 0.851 |
| RRIRDRPPRLPRPRPRPMYEPRP | 0.183 |
| RRIRDRPPRLPRPRPRPMYVPRP | -0.243 |
| RRIRDRPPRLPRPRPRPNCQPRP | 0.156 |
| RRIRDRPPRLPRPRPRPNDAPRP | 0.0621 |
| RRIRDRPPRLPRPRPRPNDTPRP | 0.0133 |
| RRIRDRPPRLPRPRPRPNEWPRP | -0.00174 |
| RRIRDRPPRLPRPRPRPNFIPRP | -0.0733 |
| RRIRDRPPRLPRPRPRPNIVPRP | -0.0381 |
| RRIRDRPPRLPRPRPRPNKCPRP | -0.104 |
| RRIRDRPPRLPRPRPRPNKWPRP | -0.0744 |
| RRIRDRPPRLPRPRPRPNPVPRP | -0.41 |
| RRIRDRPPRLPRPRPRPNQPPRP | 0.0323 |
| RRIRDRPPRLPRPRPRPNQTPRP | 0.0331 |
| RRIRDRPPRLPRPRPRPNRTPRP | -0.477 |
| RRIRDRPPRLPRPRPRPNVLPRP | -0.45 |
| RRIRDRPPRLPRPRPRPNWLPRP | 0.0018 |
| RRIRDRPPRLPRPRPRPNYFPRP | -0.0536 |
| RRIRDRPPRLPRPRPRPNYQPRP | -0.187 |
| RRIRDRPPRLPRPRPRPPAYPRP | -0.0668 |
| RRIRDRPPRLPRPRPRPPFTPRP | 1.76 |
| RRIRDRPPRLPRPRPRPPHAPRP | 0.631 |
| RRIRDRPPRLPRPRPRPPIAPRP | -0.0649 |
| RRIRDRPPRLPRPRPRPPKSPRP | 0.555 |
| RRIRDRPPRLPRPRPRPPLFPRP | 0.5 |

| Sequence | shrunken log2 fold change |
| --- | --- |
| RRIRDRPPRLPRPRPRPPMNPRP | -0.258 |
| RRIRDRPPRLPRPRPRPPNKPRP | 0.0523 |
| RRIRDRPPRLPRPRPRPPNTPRP | 0.0945 |
| RRIRDRPPRLPRPRPRPPNWPRP | 0.28 |
| RRIRDRPPRLPRPRPRPPPVPRP | 0.867 |
| RRIRDRPPRLPRPRPRPPRDPRP | 0.771 |
| RRIRDRPPRLPRPRPRPPRQPRP | 0.782 |
| RRIRDRPPRLPRPRPRPPSVPRP | 0.258 |
| RRIRDRPPRLPRPRPRPPTMPRP | -0.061 |
| RRIRDRPPRLPRPRPRPPVGPRP | 0.348 |
| RRIRDRPPRLPRPRPRPPVVPRP | -0.0109 |
| RRIRDRPPRLPRPRPRPPWQPRP | 0.475 |
| RRIRDRPPRLPRPRPRPPYFPRP | -0.0365 |
| RRIRDRPPRLPRPRPRPPYLPRP | -0.0541 |
| RRIRDRPPRLPRPRPRPPYMPRP | -0.464 |
| RRIRDRPPRLPRPRPRPPYSPRP | -0.805 |
| RRIRDRPPRLPRPRPRPQCVPRP | 0.0602 |
| RRIRDRPPRLPRPRPRPQDLPRP | 0.0112 |
| RRIRDRPPRLPRPRPRPQEDPRP | 0.399 |
| RRIRDRPPRLPRPRPRPQFCPRP | -0.137 |
| RRIRDRPPRLPRPRPRPQHGPRP | 0.587 |
| RRIRDRPPRLPRPRPRPQIKPRP | 0.0877 |
| RRIRDRPPRLPRPRPRPQIMPRP | 0.0478 |
| RRIRDRPPRLPRPRPRPQKWPRP | 0.15 |
| RRIRDRPPRLPRPRPRPQLNPRP | -0.267 |

| Sequence | shrunken log2 fold change |
| --- | --- |
| RRIRDRPPRLPRPRPRPQQFPRP | 0.251 |
| RRIRDRPPRLPRPRPRPQQLPRP | -0.0103 |
| RRIRDRPPRLPRPRPRPQRFPRP | 0.095 |
| RRIRDRPPRLPRPRPRPQRVPRP | 0.143 |
| RRIRDRPPRLPRPRPRPQSHPRP | 0.236 |
| RRIRDRPPRLPRPRPRPQSNPRP | -0.109 |
| RRIRDRPPRLPRPRPRPQSRPRP | -0.123 |
| RRIRDRPPRLPRPRPRPQVFPRP | -0.101 |
| RRIRDRPPRLPRPRPRPQVVPRP | 0.0572 |
| RRIRDRPPRLPRPRPRPQWPPRP | -0.0971 |
| RRIRDRPPRLPRPRPRPQWVPRP | -0.0468 |
| RRIRDRPPRLPRPRPRPRCLPRP | -0.0519 |
| RRIRDRPPRLPRPRPRPRFFPRP | 0.226 |
| RRIRDRPPRLPRPRPRPRFHPRP | -0.239 |
| RRIRDRPPRLPRPRPRPRFMPRP | -0.0192 |
| RRIRDRPPRLPRPRPRPRFRPRP | 0.951 |
| RRIRDRPPRLPRPRPRPRFVPRP | 0.0484 |
| RRIRDRPPRLPRPRPRPRGAPRP | 0.772 |
| RRIRDRPPRLPRPRPRPRGNPRP | 0.088 |
| RRIRDRPPRLPRPRPRPRHHPRP | -0.043 |
| RRIRDRPPRLPRPRPRPRHWPRP | 0.548 |
| RRIRDRPPRLPRPRPRPRITPRP | -0.138 |
| RRIRDRPPRLPRPRPRPRLNPRP | -0.0317 |
| RRIRDRPPRLPRPRPRPRPFPRP | 0.691 |
| RRIRDRPPRLPRPRPRPRPSPRP | 0.329 |

| Sequence | shrunken log2 fold change |
| --- | --- |
| RRIRDRPPRLPRPRPRPRPVPRP | 0.466 |
| RRIRDRPPRLPRPRPRPRQCPRP | -0.0309 |
| RRIRDRPPRLPRPRPRPRQMPRP | 0.019 |
| RRIRDRPPRLPRPRPRPRRPPRP | 0.652 |
| RRIRDRPPRLPRPRPRPRRYPRP | 0.247 |
| RRIRDRPPRLPRPRPRPRSAPRP | 0.321 |
| RRIRDRPPRLPRPRPRPRSDPRP | 0.514 |
| RRIRDRPPRLPRPRPRPRSLPRP | -0.0214 |
| RRIRDRPPRLPRPRPRPRWLPRP | 0.511 |
| RRIRDRPPRLPRPRPRPRWPPRP | 0.594 |
| RRIRDRPPRLPRPRPRPRWRPRP | 0.605 |
| RRIRDRPPRLPRPRPRPRYIPRP | -0.356 |
| RRIRDRPPRLPRPRPRPSAHPRP | 0.127 |
| RRIRDRPPRLPRPRPRPSCCPRP | 1.57 |
| RRIRDRPPRLPRPRPRPSCDPRP | -0.0948 |
| RRIRDRPPRLPRPRPRPSEPPRP | 0.06 |
| RRIRDRPPRLPRPRPRPSFDPRP | -0.0842 |
| RRIRDRPPRLPRPRPRPSFMPRP | 0.147 |
| RRIRDRPPRLPRPRPRPSFPPRP | -0.362 |
| RRIRDRPPRLPRPRPRPSGCPRP | 0.0451 |
| RRIRDRPPRLPRPRPRPSIWPRP | 0.262 |
| RRIRDRPPRLPRPRPRPSKKPRP | -0.217 |
| RRIRDRPPRLPRPRPRPSLFPRP | 0.205 |
| RRIRDRPPRLPRPRPRPSLLPRP | 0.05 |
| RRIRDRPPRLPRPRPRPSMGPRP | -0.11 |

| Sequence | shrunken log2 fold change |
| --- | --- |
| RRIRDRPPRLPRPRPRPSMWPRP | -0.0184 |
| RRIRDRPPRLPRPRPRPSNMPRP | -0.0872 |
| RRIRDRPPRLPRPRPRPSRGPRP | 0.386 |
| RRIRDRPPRLPRPRPRPSRTPRP | 0.208 |
| RRIRDRPPRLPRPRPRPSTAPRP | 0.314 |
| RRIRDRPPRLPRPRPRPSVHPRP | -0.258 |
| RRIRDRPPRLPRPRPRPSWIPRP | -0.454 |
| RRIRDRPPRLPRPRPRPSWSPRP | -0.369 |
| RRIRDRPPRLPRPRPRPSWTPRP | -0.274 |
| RRIRDRPPRLPRPRPRPSYLPRP | -0.233 |
| RRIRDRPPRLPRPRPRPTADPRP | 0.133 |
| RRIRDRPPRLPRPRPRPTEKPRP | 0.0633 |
| RRIRDRPPRLPRPRPRPTFTPRP | 0.347 |
| RRIRDRPPRLPRPRPRPTIPPRP | 0.0494 |
| RRIRDRPPRLPRPRPRPTKQPRP | 0.188 |
| RRIRDRPPRLPRPRPRPTLDPRP | 0.784 |
| RRIRDRPPRLPRPRPRPTLQPRP | 0.981 |
| RRIRDRPPRLPRPRPRPTQMPRP | 0.583 |
| RRIRDRPPRLPRPRPRPTSYPRP | -0.189 |
| RRIRDRPPRLPRPRPRPTTEPRP | 0.578 |
| RRIRDRPPRLPRPRPRPTTKPRP | 0.0962 |
| RRIRDRPPRLPRPRPRPTVGPRP | 0.351 |
| RRIRDRPPRLPRPRPRPTVHPRP | 0.231 |
| RRIRDRPPRLPRPRPRPTVYPRP | 0.12 |
| RRIRDRPPRLPRPRPRPTWDPRP | 0.629 |
